For assay [1], the target named is T1, human FcRH5c (full length human FcRH5) (human, UniProt Q96RD9 16-977).
T1 construct: Used on transfected SVT2, 293, EJM and OPM2 cells and endogenously on MOLP-2 cells and CD19+ B cells; also called IRTA2c; huFcRH5
T1 sequence: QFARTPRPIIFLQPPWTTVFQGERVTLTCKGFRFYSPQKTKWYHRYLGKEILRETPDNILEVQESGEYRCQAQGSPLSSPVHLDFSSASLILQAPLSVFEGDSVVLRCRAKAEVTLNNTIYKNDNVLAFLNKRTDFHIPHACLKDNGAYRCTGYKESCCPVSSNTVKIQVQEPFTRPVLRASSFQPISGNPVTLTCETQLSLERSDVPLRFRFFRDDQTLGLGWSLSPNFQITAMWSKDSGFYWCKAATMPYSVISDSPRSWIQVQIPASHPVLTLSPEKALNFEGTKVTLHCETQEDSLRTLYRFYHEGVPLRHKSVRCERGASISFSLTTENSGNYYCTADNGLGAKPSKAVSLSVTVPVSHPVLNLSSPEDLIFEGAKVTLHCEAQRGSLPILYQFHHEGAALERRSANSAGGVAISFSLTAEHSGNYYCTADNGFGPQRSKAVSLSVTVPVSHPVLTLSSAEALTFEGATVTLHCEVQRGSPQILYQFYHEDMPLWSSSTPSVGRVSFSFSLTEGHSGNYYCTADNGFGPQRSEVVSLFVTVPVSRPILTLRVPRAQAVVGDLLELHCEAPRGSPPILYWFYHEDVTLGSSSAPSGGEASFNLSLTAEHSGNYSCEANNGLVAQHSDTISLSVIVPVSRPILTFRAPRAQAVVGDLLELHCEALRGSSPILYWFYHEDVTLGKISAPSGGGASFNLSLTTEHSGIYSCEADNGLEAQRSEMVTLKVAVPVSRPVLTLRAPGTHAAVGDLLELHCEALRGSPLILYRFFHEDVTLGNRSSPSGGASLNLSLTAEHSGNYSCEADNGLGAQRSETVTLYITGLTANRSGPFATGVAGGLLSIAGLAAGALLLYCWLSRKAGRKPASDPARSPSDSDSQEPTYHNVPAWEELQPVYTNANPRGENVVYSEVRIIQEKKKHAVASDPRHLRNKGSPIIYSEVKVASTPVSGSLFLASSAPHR
Kind of assay: FACS, APC-labelled antibodies on SVT2 cells with full-length human FcRH5.

Assay [2] deals with T2, human FcRH2 with N-terminal gD-expression tag on SVT2 cells (human, UniProt Q96LA5 20-508).
T2 construct: whole, on cells; also called SVT2/FcRH2
T2 sequence (looked up): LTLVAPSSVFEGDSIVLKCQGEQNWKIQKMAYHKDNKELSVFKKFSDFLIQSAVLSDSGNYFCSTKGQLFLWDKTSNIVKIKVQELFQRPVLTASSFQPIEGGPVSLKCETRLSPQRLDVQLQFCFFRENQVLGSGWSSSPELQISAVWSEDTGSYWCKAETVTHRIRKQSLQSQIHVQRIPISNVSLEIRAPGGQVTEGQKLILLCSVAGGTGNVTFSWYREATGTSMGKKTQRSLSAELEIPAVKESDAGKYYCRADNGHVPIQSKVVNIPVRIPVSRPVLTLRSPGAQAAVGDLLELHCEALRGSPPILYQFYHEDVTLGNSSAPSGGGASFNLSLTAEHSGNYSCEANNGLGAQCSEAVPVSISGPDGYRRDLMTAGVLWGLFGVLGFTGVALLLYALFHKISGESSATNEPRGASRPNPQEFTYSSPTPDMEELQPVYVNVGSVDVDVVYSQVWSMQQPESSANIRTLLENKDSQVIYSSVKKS
Kind of assay: FACS, SVT2 cells with gD-tagged FcRH2, subclone supernatants, anti-mouse PE. From the text: Fc receptor homolog (FcRH) family molecules have a high degree of homology to one another (Miller et al., 2002). The homology is especially high between the membrane proximal domains, which the E11 antibodies target (Miller et al., 2002). To investigate the cross reactivity to family members, FcRH1, FcRH2, FcRH3 and FcRH4 (all including an N-terminal gD-expression tag) were expressed in SVT2 cells and cells were stained with subclone supernatants and goat anti-mouse-PE secondary antibody. Expression of the transfected FcRH was confirmed by a signal from anti-gD antibody in all cell lines. […] Overall, the signals from FcRH3-expressing SVT2 cells were low, including the gD control antibody, indicative of low expression level. Low level of binding to FcRH3-expressing SVT2 cells was detected for 1F4 and 4H8 supernatants (FIG. 6C).

These results are taken from patent publication US20150098900A1 (Genentech, published 2015).

B1: 3B12.1.1 (antibody, IgG2b, V domains shown)
VH: EVQLQQSGPELVKPGASVKISCKTSGYTFTEYTIHWVKQSHGKSLERIGGINPNNDAVSYNQRFRGKATLTVDKSSSTAYMELRSLTSEDSAVYYCAKLGRGYYFDYWGQGTTLTVSSASTKGPSVFPLAP
VL: DIQMTQSPASLSASVGETVTITCRASENIYSNLAWYQLKQGKSPQLLVYGAANLAEGVPSRISGSGSGTQYSLKINSLQSEDFGTYYCQHFWGIPWTFGGGTKLEIKRTVAA
notes: parent 3B12 and subclone 3B12.1 treated as the same antibody; also called 3B12.1.mIgG2b
Regarding B1, the figures for the binding result in assay [1] and in assay [2] were “binds” and “no binding”, respectively.
